Measured values: patent publication US20200085789A1, “USE OF A PROTEASOME INHIBITOR FOR THE TREATMENT OF CENTRAL NERVOUS SYSTEM (CNS) CANCERS” (Celgene International II Sàrl, priority 2017, published 2020)
Read-outs that look alike come from different tables or passages of the source.

Columns and labels:
[1] = Bevacizumab serum pharmacokinetics, peak and trough (Part 1 Phase 1); type: in vivo, human; details: for Cmax D 1: C1D1; for Cmax D 15 / Cmin D 15: C1D15
From the text: The drugs were infused on 28-Day Cycles.

[2] = Adverse events and dose-limiting toxicity (NCI-CTCAE v 4.03), MRZ ± BEV in recurrent grade IV malignant glioma patients; type: in vivo, human
From the text: An adverse event (AE) is any noxious, unintended, or untoward medical occurrence that may appear or worsen in a subject during the course of a study. […] Any worsening (i.e., any clinically significant adverse change in the frequency or intensity of a pre-existing condition) should be considered an AE.
The severity/intensity of AEs will be graded based upon the subject's symptoms according to the current active minor version of the Common Terminology Criteria for Adverse Events ( ).

[3] = system: WHO Grade IV malignant glioma; details: cited from earlier work
[4] = Day 0, 10 mg/kg dose (Gordon et al., 2001); cited from earlier work
[5] = in vivo; cited from earlier work
[6] = MRZ 0.7 mg/m^2 + BEV, Cohort 2 (N = 3)
[7] = MRZ 0.8 mg/m^2 + BEV, Cohorts 3 & 4 (N = 27)
[8] = treated with MRZ 0.8 mg/m^2 + BEV (N = 27)
[9] = Heiland (Freiburg, Germany), All Pts
[10] = Heiland (Freiburg, Germany), Methylated
[11] = Heiland (Freiburg, Germany), Unmethylated
[12] = Wick (EORTC 26101 P2), Methylated
[13] = Wick (EORTC 26101 P2), Unmethylated

bevacizumab [reference compound]
mean Cmin ([1]; Day 15): 95 µg/mL
Cmax D 1 ([1]; MRZ 0.7 mg/m^2 cohort): 193 ± 8 (2) μg/mL
Cmax D 15 ([1]; MRZ 0.7 mg/m^2 cohort): 402 ± 123 (3) μg/mL
Cmin D 15 ([1]; MRZ 0.7 mg/m^2 cohort): 81.1 ± 17.4 (2) μg/mL
Cmax D 1 ([1]; MRZ 0.8 mg/m^2 cohort): 267 ± 13.3 (3) μg/mL
Cmax D 15 ([1]; MRZ 0.8 mg/m^2 cohort): 380 ± 56.5 (2) μg/mL
Cmin D 15 ([1]; MRZ 0.8 mg/m^2 cohort): 85.0 ± 9.87 (3) μg/mL
mean Cmax ([1]; all dose cohorts, Day 1, 10 mg/kg): 275 µg/mL
pharmacokinetic parameters ([1]; co-administration with marizomib): consistent with published parameters and not affected by co-administration
mean Cmax ([1]; second value printed for Day 1): 379 µg/mL
Grade ≥3 Ataxia related to the labelled drug, patients [2, 6]: 0
Grade ≥3 Confusional State related to the labelled drug, patients [2, 6]: 0
Grade ≥3 Delusion related to the labelled drug, patients [2, 6]: 0
Grade ≥3 Dyspnea related to the labelled drug, patients [2, 6]: 0
Grade ≥3 Embolism related to the labelled drug, patients [2, 6]: 0
Grade ≥3 Fall related to the labelled drug, patients [2, 6]: 0
Grade ≥3 Fatigue related to the labelled drug, patients [2, 6]: 0
Grade ≥3 Hallucination related to the labelled drug, patients [2, 6]: 0
Grade ≥3 Headache related to the labelled drug, patients [2, 6]: 0
Grade ≥3 Hypertension related to the labelled drug, patients [2, 6]: 1
Grade ≥3 Hyponatremia related to the labelled drug, patients [2, 6]: 0
Grade ≥3 Insomnia related to the labelled drug, patients [2, 6]: 0
Grade ≥3 Intracranial Hemorrhage related to the labelled drug, patients [2, 6]: 0
Grade ≥3 Optic Nerve Disorder related to the labelled drug, patients [2, 6]: 0
Grade ≥3 Proteinuria related to the labelled drug, patients [2, 6]: 1
Grade ≥3 Ataxia related to the labelled drug, patients [2, 7]: 0
Grade ≥3 Confusional State related to the labelled drug, patients [2, 7]: 0
Grade ≥3 Delusion related to the labelled drug, patients [2, 7]: 0
Grade ≥3 Dyspnea related to the labelled drug, patients [2, 7]: 1
Grade ≥3 Embolism related to the labelled drug, patients [2, 7]: 1
Grade ≥3 Fall related to the labelled drug, patients [2, 7]: 0
Grade ≥3 Fatigue related to the labelled drug, patients [2, 7]: 1
Grade ≥3 Hallucination related to the labelled drug, patients [2, 7]: 0
Grade ≥3 Headache related to the labelled drug, patients [2, 7]: 1
Grade ≥3 Hypertension related to the labelled drug, patients [2, 7]: 5
Grade ≥3 Hyponatremia related to the labelled drug, patients [2, 7]: 0
Grade ≥3 Insomnia related to the labelled drug, patients [2, 7]: 0
Grade ≥3 Intracranial Hemorrhage related to the labelled drug, patients [2, 7]: 1
Grade ≥3 Optic Nerve Disorder related to the labelled drug, patients [2, 7]: 1
Grade ≥3 Proteinuria related to the labelled drug, patients [2, 7]: 0
Anaemia: # Patients, AE related to the labelled drug(s) ([2]; pts on MRZ+BEV): 0
Anxiety: # Patients, AE related to the labelled drug(s) ([2]; pts on MRZ+BEV): 0
Aphasia: # Patients, AE related to the labelled drug(s) ([2]; pts on MRZ+BEV): 0
Appendicitis Perforated: # Patients, AE related to the labelled drug(s) ([2]; pts on MRZ+BEV): 0
Asthenia: # Patients, AE related to the labelled drug(s) ([2]; pts on MRZ+BEV): 0
Ataxia: # Patients, AE related to the labelled drug(s) ([2]; pts on MRZ+BEV): 0
Confusional State: # Patients, AE related to the labelled drug(s) ([2]; pts on MRZ+BEV): 0
Constipation: # Patients, AE related to the labelled drug(s) ([2]; pts on MRZ+BEV): 0
Convulsion: # Patients, AE related to the labelled drug(s) ([2]; pts on MRZ+BEV): 0
Delusion: # Patients, AE related to the labelled drug(s) ([2]; pts on MRZ+BEV): 0
Depressed Level of Consciousness: # Patients, AE related to the labelled drug(s) ([2]; pts on MRZ+BEV): 0
Diarrhoea: # Patients, AE related to the labelled drug(s) ([2]; pts on MRZ+BEV): 0
Dizziness: # Patients, AE related to the labelled drug(s) ([2]; pts on MRZ+BEV): 0
Dysarthria: # Patients, AE related to the labelled drug(s) ([2]; pts on MRZ+BEV): 0
Dysphagia: # Patients, AE related to the labelled drug(s) ([2]; pts on MRZ+BEV): 0
Dysphonia: # Patients, AE related to the labelled drug(s) ([2]; pts on MRZ+BEV): 10
Dyspnoea: # Patients, AE related to the labelled drug(s) ([2]; pts on MRZ+BEV): 0
Ear Infection: # Patients, AE related to the labelled drug(s) ([2]; pts on MRZ+BEV): 0
Epistaxis: # Patients, AE related to the labelled drug(s) ([2]; pts on MRZ+BEV): 7
Falls: # Patients, AE related to the labelled drug(s) ([2]; pts on MRZ+BEV): 0
Fatigue: # Patients, AE related to the labelled drug(s) ([2]; pts on MRZ+BEV): 0
Fracture of Femur: # Patients, AE related to the labelled drug(s) ([2]; pts on MRZ+BEV): 0
Hallucination: # Patients, AE related to the labelled drug(s) ([2]; pts on MRZ+BEV): 0
Headache: # Patients, AE related to the labelled drug(s) ([2]; pts on MRZ+BEV): 1
Hemiparesis: # Patients, AE related to the labelled drug(s) ([2]; pts on MRZ+BEV): 0
Hyperglycemia: # Patients, AE related to the labelled drug(s) ([2]; pts on MRZ+BEV): 0
Hypertension: # Patients, AE related to the labelled drug(s) ([2]; pts on MRZ+BEV): 13
Hypokalemia: # Patients, AE related to the labelled drug(s) ([2]; pts on MRZ+BEV): 0
Hyponatremia: # Patients, AE related to the labelled drug(s) ([2]; pts on MRZ+BEV): 0
Hypotension: # Patients, AE related to the labelled drug(s) ([2]; pts on MRZ+BEV): 0
Infusion Site Pain: # Patients, AE related to the labelled drug(s) ([2]; pts on MRZ+BEV): 0
Insomnia: # Patients, AE related to the labelled drug(s) ([2]; pts on MRZ+BEV): 1
Lymphocyte Count Decreased: # Patients, AE related to the labelled drug(s) ([2]; pts on MRZ+BEV): 0
Muscular Weakness: # Patients, AE related to the labelled drug(s) ([2]; pts on MRZ+BEV): 0
Nausea: # Patients, AE related to the labelled drug(s) ([2]; pts on MRZ+BEV): 0
Optic Nerve Disorder: # Patients, AE related to the labelled drug(s) ([2]; pts on MRZ+BEV): 1
Pyramidal Tract Syndrome: # Patients, AE related to the labelled drug(s) ([2]; pts on MRZ+BEV): 0
Tumor Metastasis: # Patients, AE related to the labelled drug(s) ([2]; pts on MRZ+BEV): 0
Vision Blurred: # Patients, AE related to the labelled drug(s) ([2]; pts on MRZ+BEV): 0
Vomiting: # Patients, AE related to the labelled drug(s) ([2]; pts on MRZ+BEV): 0
Anaemia related to the labelled drug(s) [2, 8]: (0.0%)
Anaemia related to the labelled drug(s), patients [2, 8]: 0
Ataxia related to the labelled drug(s) [2, 8]: (0.0%)
Ataxia related to the labelled drug(s), patients [2, 8]: 0
Confusional state related to the labelled drug(s) [2, 8]: (3.7%)
Confusional state related to the labelled drug(s), patients [2, 8]: 1
Constipation related to the labelled drug(s) [2, 8]: (3.7%)
Constipation related to the labelled drug(s), patients [2, 8]: 1
Diarrhoea related to the labelled drug(s) [2, 8]: (3.7%)
Diarrhoea related to the labelled drug(s), patients [2, 8]: 1
Dizziness related to the labelled drug(s) [2, 8]: (3.7%)
Dizziness related to the labelled drug(s), patients [2, 8]: 1
Dysphonia related to the labelled drug(s) [2, 8]: (37.0%)
Dysphonia related to the labelled drug(s), patients [2, 8]: 10
Epistaxis related to the labelled drug(s) [2, 8]: (25.9%)
Epistaxis related to the labelled drug(s), patients [2, 8]: 7
Fall related to the labelled drug(s) [2, 8]: (0.0%)
Fall related to the labelled drug(s), patients [2, 8]: 0
Fatigue related to the labelled drug(s) [2, 8]: (66.7%)
Fatigue related to the labelled drug(s), patients [2, 8]: 18
Hallucination related to the labelled drug(s) [2, 8]: (0.0%)
Hallucination related to the labelled drug(s), patients [2, 8]: 0
Headache related to the labelled drug(s) [2, 8]: (22.2%)
Headache related to the labelled drug(s), patients [2, 8]: 6
Hypertension related to the labelled drug(s) [2, 8]: (40.7%)
Infusion site pain related to the labelled drug(s) [2, 8]: (3.7%)
Infusion site pain related to the labelled drug(s), patients [2, 8]: 1
Muscular weakness related to the labelled drug(s) [2, 8]: (3.7%)
Muscular weakness related to the labelled drug(s), patients [2, 8]: 1
Nausea related to the labelled drug(s) [2, 8]: (7.4%)
Platelet count decreased related to the labelled drug(s) [2, 8]: (11.1%)
Platelet count decreased related to the labelled drug(s), patients [2, 8]: 3
Stomatitis related to the labelled drug(s) [2, 8]: (7.4%)
Upper-airway cough syndrome related to the labelled drug(s) [2, 8]: (18.5%)
Upper-airway cough syndrome related to the labelled drug(s), patients [2, 8]: 5
Vomiting related to the labelled drug(s) [2, 8]: (14.8%)
6 mo Overall Survival ([3]; Field (CABARET), All Pts): 61%
6 mo Progression Free Survival ([3]; Field (CABARET), All Pts): 18%
9 mo Overall Survival ([3]; Field (CABARET), All Pts): 39%
9 mo Progression Free Survival ([3]; Field (CABARET), All Pts): 6%
12 Mo. Overall Survival ([3]; Field (CABARET), All Pts): 24%
6 mo Overall Survival [3, 9]: 18%
9 mo Overall Survival [3, 9]: 30%
9 mo Progression Free Survival [3, 9]: 0%
12 Mo. Overall Survival [3, 9]: 10%
12 Mo. Progression Free Survival [3, 9]: 0%
6 mo Overall Survival [3, 10]: 58%
6 mo Progression Free Survival [3, 10]: 38%
9 mo Overall Survival [3, 10]: 40%
9 mo Progression Free Survival [3, 10]: 22%
12 Mo. Overall Survival [3, 10]: 24%
12 Mo. Progression Free Survival [3, 10]: 10%
6 mo Overall Survival [3, 11]: 25%
6 mo Progression Free Survival [3, 11]: 10%
9 mo Progression Free Survival [3, 11]: 0%
12 Mo. Progression Free Survival [3, 11]: 0%
6 mo Overall Survival ([3]; Taal (BELOB), All Pts): 62%
6 mo Progression Free Survival ([3]; Taal (BELOB), All Pts): 16%
9 mo Overall Survival ([3]; Taal (BELOB), All Pts): 45%
9 mo Progression Free Survival ([3]; Taal (BELOB), All Pts): 8%
12 Mo. Overall Survival ([3]; Taal (BELOB), All Pts): 26%
6 mo Overall Survival ([3]; Taal (BELOB), Methylated): 83%
6 mo Progression Free Survival ([3]; Taal (BELOB), Methylated): 33%
9 mo Overall Survival ([3]; Taal (BELOB), Methylated): 67%
9 mo Progression Free Survival ([3]; Taal (BELOB), Methylated): 22%
12 Mo. Overall Survival ([3]; Taal (BELOB), Methylated): 56%
6 mo Overall Survival ([3]; Taal (BELOB), Unmethylated): 50%
6 mo Progression Free Survival ([3]; Taal (BELOB), Unmethylated): 8%
9 mo Progression Free Survival ([3]; Taal (BELOB), Unmethylated): 0%
12 Mo. Overall Survival ([3]; Taal (BELOB), Unmethylated): 8%
12 Mo. Progression Free Survival ([3]; Taal (BELOB), Unmethylated): 0%
6 mo Progression Free Survival ([3]; Wick (EORTC 26101 P2), All Pts): 14%
9 mo Progression Free Survival ([3]; Wick (EORTC 26101 P2), All Pts): 9%
12 Mo. Progression Free Survival ([3]; Wick (EORTC 26101 P2), All Pts): 8%
6 mo Progression Free Survival [3, 12]: 25%
9 mo Progression Free Survival [3, 12]: 9%
12 Mo. Progression Free Survival [3, 12]: 9%
6 mo Progression Free Survival [3, 13]: 10%
9 mo Progression Free Survival [3, 13]: 10%
12 Mo. Progression Free Survival [3, 13]: 10%
6-month progression-free survival (PFS) rate ([3]; recurrent G4 MG, BEV alone): ~43%
median overall survival (OS) ([3]; recurrent G4 MG, BEV alone): ~9 months
Cmax [4]: 284 µg/mL

CC(C)C[C@H](NC(=O)[C@H](Cc1ccccc1)NC(=O)c1cnccn1)B(O)O [BTZ, bortezomib, reference compound]
crossing of the blood brain barrier [5]: does not cross the blood brain barrier
